In assay [1] the target is T1, human IL-13 wild type (human, UniProt P35225 35-146).
T1 construct: also called h IL-13; h IL-13 wt
The assay is described as follows: blocking of IL-13 binding to IL-13Rα2, receptor binding assays.

Assay [2] has as its target T1, human IL-13 wild type. Nature of the assay: SPR (Biacore), mAb captured, IL-13 as analyte. (In general: SPR reads the build-up and loss of mass on a sensor chip optically.)
The target of assay [3] is T2, human IL-13 variant (R130Q) (human, UniProt P35225 35-146).
T2 construct: called R110Q in the assay descriptions (mature numbering); also called h IL-13v; hIL-13v
The assay is described as follows: SPR (Biacore), mAb captured, IL-13 as analyte.

The target in assay [4] is T3, mouse IL-13 (mouse, UniProt P20109 26-131, limits assumed).
T3 construct: also called mIL-13; murine IL-13
T3 sequence (looked up): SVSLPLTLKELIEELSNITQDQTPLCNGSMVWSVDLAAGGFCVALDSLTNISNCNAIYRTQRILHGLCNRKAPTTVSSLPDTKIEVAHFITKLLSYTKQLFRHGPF
The assay is described as follows: indirect ELISA, captured mAb, biotinylated mouse IL-13. On the technique in general: ELISA stands for enzyme-linked immunosorbent assay.

The target of assay [5] is T1, human IL-13 wild type. Nature of the assay: cell-based or functional assay.
Assay [6] addresses cynomolgus IL-13 (cynomolgus, UniProt Q0PW92 21-132). The assay is described as follows: cell-based or functional assay.
Assay [7] deals with T2, human IL-13 variant (R130Q). The assay is described as follows: cell-based or functional assay.

T1 sequence (P35225 other isoform, or with tags, fused parts or gaps limits assumed): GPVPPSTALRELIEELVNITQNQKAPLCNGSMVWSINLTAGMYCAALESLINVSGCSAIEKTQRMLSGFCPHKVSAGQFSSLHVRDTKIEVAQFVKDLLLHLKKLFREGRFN
T2 sequence (P35225 35-146 limits assumed, stated change not applied): as the sequence (P35225 other isoform, or with tags, fused parts or gaps limits assumed) above, with R110Q counted along it
Chain of cynomolgus IL-13 (Q0PW92 entry or part of it): as the sequence (P35225 other isoform, or with tags, fused parts or gaps limits assumed) above, with G1S, R10K, M42V, S67N, H83R, L100V, R110Q counted along it

B1: 9C11 (antibody, V domains shown)
VH: QVRLQQPGAELVRPGASVKLSCKASGYTFTSSWIHWVNQRPGQGLEWIGMIHPSDSETRLNQKFKDKATLTVDKSSSTAYMQLSSPTSEDSAVYYCASTATDFDYWGQGTTLTVSS
VL: DVVLTQTPLSLPVNIGDQASISCRSTQTLLNSDGFTYLDWYLQKPGQSPQLLIYLVSNRFSGVPDRFSGSGSGTDFTLKISRVEAEDLGVYYCFQNNYLPLTFGAGTKLELKR
A word on the IC50: it is the point on the concentration scale where inhibition reaches its midpoint. Higher therefore signals lower potency. As usually defined, the Kd is the constant that tells how readily two partners part at equilibrium. In general, koff refers to a measure of how fast the partners let go of each other. A higher koff goes with a short-lived complex. As usually defined, the kon is a measure of how fast the partners come together. Take B1: the IC50 in assay [1] is more than 10 nM. The Kd was 0.112 nM in assay [2] and 0.0921 nM in assay [3]. For the same molecule, the koff in assay [2] was found to be 6.5e-05 s⁻¹; in assay [3], 5.86e-05 s⁻¹. Further, the kon in assay [2] was 579000 M⁻¹ s⁻¹; in assay [3], 637000 M⁻¹ s⁻¹. Also, in assay [4], the binding result was “no binding (tested: 0.1 to 100 ng/ml)”. Also, the figures for the “Average IC50, IL-13-induced TARC production by A-549 cells” value in assay [5], in assay [6] and in assay [7] were 0.106 nM, 0.64 nM and 0.17 nM, respectively.
